Assay results published in patent publication US20220306762A1 (CRYSTAL BIOSCIENCE, published 2022).
Changes are numbered by the printed parent chain.

T1: His-tagged mouse CD38 (ACRO Biosystems #CD8-M5223) (mouse, UniProt P56528 45-304)
T1 construct: bought recombinant protein with His tag; also called Murine
T1 sequence (looked up): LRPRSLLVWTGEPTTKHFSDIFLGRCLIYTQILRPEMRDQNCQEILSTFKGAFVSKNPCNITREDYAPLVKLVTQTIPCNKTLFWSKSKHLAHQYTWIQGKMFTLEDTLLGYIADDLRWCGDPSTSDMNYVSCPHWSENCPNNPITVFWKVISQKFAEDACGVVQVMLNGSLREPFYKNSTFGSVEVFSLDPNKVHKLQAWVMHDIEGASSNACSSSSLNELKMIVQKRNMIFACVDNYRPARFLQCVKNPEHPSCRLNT

T2: murine CD38 on transiently transfected Expi293 cells (Origene MC208001) (murine, UniProt P56528 1-304)
T2 construct: whole, on cells; also called Murine (FACs)
T2 sequence (looked up): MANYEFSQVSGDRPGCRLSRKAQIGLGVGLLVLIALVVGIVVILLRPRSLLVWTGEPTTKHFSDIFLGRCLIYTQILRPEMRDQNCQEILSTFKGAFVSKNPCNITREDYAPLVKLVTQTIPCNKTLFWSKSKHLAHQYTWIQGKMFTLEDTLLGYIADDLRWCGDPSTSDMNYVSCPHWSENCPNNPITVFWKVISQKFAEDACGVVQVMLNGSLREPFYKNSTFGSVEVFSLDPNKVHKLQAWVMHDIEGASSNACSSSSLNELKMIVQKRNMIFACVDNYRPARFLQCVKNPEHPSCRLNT

B1: 40566p1.B3 (scFv, V domains shown)
VH: DVQLVESGGGVVRPGESLRLSCAASGFTFDNYDMTWVRQAPGEGLEWVSFISSRGTFTYYTDSVRGRFTISRDNSKNTLYLEMNSLRAEDTAIYYCAKDSGEYYFFDYWGLGTLVTVSS
VL: EIVMTQSPATLSVSPGERATFSCRASQSVNSKLAWYQQKPGQAPRLLIYGASRRATGIPDRFSGSGSGTEFTLTISSLQSEDFAVYYCQQYYDWPPLTFGGGTKVEIK
notes: tested as scFv-Fc supernatant
B2: 40617p1.2.A3 (scFv, V domains shown)
VH: EVQLLESGGGLVQPGGSLRLSCAASGFTFSNYWMTWVRQAPGKGLEWVSAISSYGGNYIYYADSVKGRFTISRDNSKDTLYLQMNSLRAEDTAVYYCAKDWDDGMDVWGQGTTVTVSS
VL: B1 VL with T10V, F21L, R53T, T56A, E70D, L78P, Q90H, W94L, L97Y, T98S
notes: tested as scFv-Fc supernatant
B3: 40617p1.2.H8 (scFv, V domains shown)
VH: B2 VH with N31S, I59M
VL: EIVMTQSPATLSVSPGDRATLSCRASQSVNSKLAWYQQKPGQAPRLLIYAASSRATGIPDRFSGSGSGTDFTLTISRLEPEDFAVYYCQQYYDLPPYSFGGGTKVEIK
notes: tested as scFv-Fc supernatant
B4: 40566p1.F8 (scFv, V domains shown)
VH: B1 VH with T58A, R65K, E82Q, A97T
VL: B1 VL
notes: tested as scFv-Fc supernatant
B5: 40566p1.B11 (scFv, V domains shown)
VH: B1 VH with V11L, R65K, E82Q
VL: B1 VL with G64E, Y92H
notes: tested as scFv-Fc supernatant
B6: 40617p1.2.A1 (scFv, V domains shown)
VH: B2 VH with N31S, N57Q, I59T, Q83H, N85D
VL: B3 VL with T10V, D17E, S31I, A50G, S53T, T56A, R77S, E79Q, P80S, E81D
notes: tested as scFv-Fc supernatant
B7: 40617p1.2.H1 (scFv, V domains shown)
VH: B2 VH with S30T, I59M, K77E, D78N
VL: EIVMTQSPAVLSVSPGERATLSCRASQTVGSKLAWYQQKPGQAPRLLIYGVSTRAAGIPDRFSGSGSGTDFTLTISSLQSEDFAVYYCQQYYDLPPYSFGGGTKVEIK
notes: tested as scFv-Fc supernatant
B8: 40566p1.C9 (scFv, V domains shown)
VH: B1 VH with R65K, E82Q, A97T
VL: B1 VL with I2T, G50D, Y87F
notes: tested as scFv-Fc supernatant
B9: 40769p1.2.B10 (scFv, V domains shown)
VH: EVQLLESGGGLVQPGGSLRLSCPASGFDFSSYWMTWVRQAPGKGLEWVSTITDSGGRAWYADSVRGRFTISRDNSKNTLYLQMNSLRAEDTAVYYCARDTPKTYYYYAMDVWGQGTTVTV
VL: QSALTQPPSASGTPGQRVTISCSGSSSNIQYSYVSWYQQLPGTAPKLLIYNNVQRPSGVPDRFSGSKSGTSASLAISGLQSEDEADYYCATWDESLLGLWVFGGGTKLTVL
notes: tested as scFv-Fc supernatant
B10: 40596p1.B1 (scFv, V domains shown)
VH: EVQLLESGGGLVEPGGSLRLSCAASGFDFSTYAMTWVRQAPGKGLEWVAGNGWSGSFIYYADSVKGRFTISRDNSKNTLYLQMNSLRAEDTAVYYCTRNPGFGEMDVWGQGTTVTVSS
VL: EIVLTQSPGTLRLSPGERATLSCKASQTVGTTLAWYQQKPGQAPRLLIYGASTRATGIPDRFSGSGSGTEFTLTISSLQSEDFADYYCQQYKSWPPLTFGGGTKVEIK
notes: tested as scFv-Fc supernatant
B11: 40596p1.F6 (scFv, V domains shown)
VH: EVQLLESGGGLVQPGGSLRLSCAASGFDFSKNAMSWVRQAPGKGLEYVAGSGWSGSFIFYADSVKGRFTVSRDNSENTLYLQMSSLRAEDTAVYYCAKNPGFGEMDVWGQGTTVTVSS
VL: EIVLTQSPGSLFLSPGERATLTCRASQTIGSNLAWYQQKFGQAPRLLIYGASTRAADIPDRFSGSGSGTEFTLTISSLQSEDFAVYYCQQYNSWPPLTFGGGTKVEIK
notes: tested as scFv-Fc supernatant
B12: 40596p1.D2 (scFv, V domains shown)
VH: B11 VH with F68S
VL: B11 VL with I2L
notes: tested as scFv-Fc supernatant
B13: 40596p1.A5 (scFv, V domains shown)
VH: B11 VH with K31N, S84N
VL: B11 VL with F12S, T22R, T28S, F40P, R45S, S76T
notes: tested as scFv-Fc supernatant
B14: 40596p1.G10 (scFv, V domains shown)
VH: B11 VH with S25P
VL: B11 VL
notes: tested as scFv-Fc supernatant
B15: 40769p1.1.A4 (scFv, V domains shown)
VH: EVQLLESGGGLVQPGGSLRLSCTASGITFSRFNMFWVRQAPGKGLEFVASIRDDGSWTYYADSVKGRFTISRDNSKNTLYLQMNSLRAEDTAVYYCAKDYNSKDFIYHYVMDVWGQGTTVTVSS
VL: QSVLTQPPSASGTPGQRVTISCSGRNSNIGNNVVNWYQQLPGTAPKLLIYKDDQRPSGVPDRFSGSKSGTSASLAISGLQSEDEADYYCSTWDDSLNGWVFGGGTKLTVL
notes: tested as scFv-Fc supernatant

molecular target: T3, His-tagged cynomolgus monkey CD38 (ACRO Biosystems cat #CD8-05223) (cynomolgus monkey, UniProt Q5VAN0 43-301); assay: ELISA, coated His-CD38
T3 construct: bought recombinant protein with His tag

Row | Binder | ELISA 1 ug/ml
1 | B1 | 1.81
2 | B2 | 1.7
3 | B3 | 2.17
4 | B4 | 1.8
5 | B5 | 1.44
6 | B6 | 1.67
7 | B7 | 1.83
8 | B8 | 1.66
9 | B9 | 1.68
10 | B10 | 1.99
11 | B11 | 1.87
12 | B12 | 1.85
13 | B13 | 1.97
14 | B14 | 1.89
15 | B15 | 1.78

molecular target: T4, His-tagged human CD38 (ACRO Biosystems cat #CD8-H5224) (human, UniProt P28907 43-300); assay: ELISA, coated His-CD38
T4 construct: bought recombinant protein with His tag

Row | Binder | ELISA 1 ug/ml
16 | B1 | 1.89
17 | B2 | 1.75
18 | B3 | 1.77
19 | B4 | 1.75
20 | B5 | 1.43
21 | B6 | 1.57
22 | B7 | 1.81
23 | B8 | 1.83
24 | B9 | 1.7
25 | B10 | 1.79
26 | B11 | 1.91
27 | B12 | 1.98
28 | B13 | 1.88
29 | B14 | 1.84
30 | B15 | 1.67

molecular target: T1, His-tagged mouse CD38 (ACRO Biosystems …); assay: ELISA, coated His-CD38

Row | Binder | ELISA 1 ug/ml
31 | B1 | 1.93
32 | B2 | 0.745
33 | B3 | 1.5
34 | B4 | 1.88
35 | B5 | 1.24
36 | B6 | 1.13
37 | B7 | 1.05
38 | B8 | 1.97
39 | B9 | 1.14
40 | B10 | 1.76
41 | B11 | 1.9
42 | B12 | 1.77
43 | B13 | 1.81
44 | B14 | 1.74
45 | B15 | 0.049

molecular target: T3, His-tagged cynomolgus monkey CD38 (ACRO …); assay: SPR, captured scFv-Fc, His-CD38 analyte;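 note: SPR on a Carterra LSA, scFv-Fc captured by anti-human Fc on HC30M chip, His-tagged CD38 (human, mouse, cynomolgus) flowed as analyte in eight 1:2 steps from 400 nM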

Row | Binder | Kd
46 | B1 | 5.68 nM
47 | B2 | 92.8 nM
48 | B3 | 39.3 nM
49 | B4 | 4.82 nM
50 | B5 | 549 nM
51 | B6 | 77.9 nM
52 | B7 | 30.6 nM
53 | B8 | 4.67 nM
54 | B9 | 18 nM
55 | B10 | 110 nM
56 | B11 | 98.4 nM
57 | B12 | 154 nM
58 | B13 | 13.6 nM
59 | B14 | 56.3 nM
60 | B15 | 0.106 nM

molecular target: T4, His-tagged human CD38 (ACRO Biosystems …); assay: SPR, captured scFv-Fc, His-CD38 analyte;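 note: SPR on a Carterra LSA, scFv-Fc captured by anti-human Fc on HC30M chip, His-tagged CD38 (human, mouse, cynomolgus) flowed as analyte in eight 1:2 steps from 400 nM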

Row | Binder | Kd
61 | B1 | 43800 nM
62 | B2 | 28.1 nM
63 | B3 | 60.7 nM
64 | B4 | 10900 nM
65 | B5 | 104 nM
66 | B6 | 82.9 nM
67 | B7 | 12.5 nM
68 | B8 | 0.269 nM
69 | B9 | 1.43 nM
70 | B10 | 46600 nM
71 | B11 | 84.7 nM
72 | B12 | 63.7 nM
73 | B13 | 75.8 nM
74 | B14 | 67.8 nM
75 | B15 | 54400 nM

molecular target: T1, His-tagged mouse CD38 (ACRO Biosystems …); assay: SPR, captured scFv-Fc, His-CD38 analyte;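 note: SPR on a Carterra LSA, scFv-Fc captured by anti-human Fc on HC30M chip, His-tagged CD38 (human, mouse, cynomolgus) flowed as analyte in eight 1:2 steps from 400 nM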

Row | Binder | Kd
76 | B1 | 1.32 nM
77 | B2 | 75.5 nM
78 | B3 | 154 nM
79 | B4 | 7.59 nM
80 | B5 | 224 nM
81 | B6 | 108 nM
82 | B7 | 39.4 nM
83 | B8 | 0.351 nM
84 | B9 | 56300 nM
85 | B10 | 9070 nM
86 | B11 | 10.8 nM
87 | B12 | 19 nM
88 | B13 | 6.82 nM
89 | B14 | 20.8 nM
90 | B15 | 675000 nM

molecular target: T5, human CD38 on transiently transfected Expi293 cells (Origene #SC321273) (human, UniProt P28907 1-300); assay: flow cytometry, transfected Expi293 cells;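 note: antibody binding to Expi293 cells transiently expressing human or murine CD38, antibodies applied at 10 ug/ml for 60 min on ice, read by flow cytometry as percent gated cells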
T5 construct: whole, on cells; also called Human (FACs)

Row | Binder | FACs 10 ug/ml (percent gated)
91 | B1 | 21.1%
92 | B2 | 70.3%
93 | B3 | 67.8%
94 | B4 | 19.5%
95 | B5 | 6.05%
96 | B6 | 78.8%
97 | B7 | 69.5%
98 | B8 | 31.3%
99 | B9 | 86.3%
100 | B10 | 66.1%
101 | B11 | 72.8%
102 | B12 | 71.5%
103 | B13 | 72.8%
104 | B14 | 68%
105 | B15 | 69.9%

molecular target: T2, murine CD38 on transiently transfected …; assay: flow cytometry, transfected Expi293 cells;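 note: antibody binding to Expi293 cells transiently expressing human or murine CD38, antibodies applied at 10 ug/ml for 60 min on ice, read by flow cytometry as percent gated cells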

Row | Binder | FACs 10 ug/ml (percent gated)
106 | B1 | 74.1%
107 | B2 | 69.4%
108 | B3 | 68.4%
109 | B4 | 72.1%
110 | B5 | 49.9%
111 | B6 | 67.9%
112 | B7 | 68.5%
113 | B8 | 76.9%
114 | B9 | 4.81%
115 | B10 | 45.4%
116 | B11 | 68.6%
117 | B12 | 61%
118 | B13 | 68.7%
119 | B14 | 59%
120 | B15 | 3.09%
